Laboratory results: patent publication US20040091992A1

Biological target: Myc tagged Cdc42HsV12 (constitutively active, expressed in microinjected cells) (UniProt P60953)
Experiment: cell-based or functional assay

Chain of Myc tagged Cdc42HsV12 (constitutively active, expressed in microinjected cells) (P60953 other isoform, or with tags, fused parts or gaps): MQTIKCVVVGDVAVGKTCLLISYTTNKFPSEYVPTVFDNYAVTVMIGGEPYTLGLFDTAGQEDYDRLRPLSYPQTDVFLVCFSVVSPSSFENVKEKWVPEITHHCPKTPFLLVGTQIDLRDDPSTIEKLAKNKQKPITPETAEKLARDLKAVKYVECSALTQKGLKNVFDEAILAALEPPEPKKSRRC

A sustained formation of actin enriched filopodia protrusions in co-injected PAE cells (% of the injected cells) greater than 70 was found for “HA tagged PAK4 (wild type, expressed in cells from the SRalpha vector) (from UniProt O96013 1-591)” in this work.
